Data from the supplement of paper PMC5998384.

Assays:
[1] = tested on: HeLa Kyoto; test: solubility change mitosis vs G1/S (difference of NP-40 vs SDS log2 ratios) (log2 ratio difference); higher = more soluble in mitosis
[2] = tested on: HeLa Kyoto; test: solubility in G1/S (NP-40 vs SDS abundance) (log2 ratio); higher = more soluble; settings: cell cycle stage: G1/S
[3] = tested on: HeLa Kyoto; test: thermal stability score vs G1/S (z-score of summed log2 fold changes over temperatures); higher = more thermally stable than in G1/S
[4] = tested on: HeLa Kyoto; test: melting temperature (median over replicates), in situ; higher = more thermally stable
[5] = cell cycle stage: early G1 (4.5 h after nocodazole release)
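For melting temperature (median over replicates), in situ in this document: HeLa Kyoto cells synchronized by double thymidine or nocodazole block, proteins quantified by TMT10plex mass spectrometry, three independent biological replicates.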
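For solubility change mitosis vs G1/S (difference of NP-40 vs SDS log2 ratios) in this document: synchronized HeLa Kyoto cells (double thymidine block for G1/S, nocodazole release for mitosis), protein amounts in NP-40 versus SDS lysates quantified by mass spectrometry, three biological replicates.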
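For solubility in G1/S (NP-40 vs SDS abundance) in this document: HeLa Kyoto cells arrested at G1/S by double thymidine block, proteins quantified by TMT10plex mass spectrometry in mild NP-40 versus SDS extracts, three biological replicates.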
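For thermal stability score vs G1/S (z-score of summed log2 fold changes over temperatures) in this document: synchronized HeLa Kyoto cells, proteins quantified by TMT10plex mass spectrometry, three biological replicates, mitosis taken 0.5 h after nocodazole release, G1/S directly after double thymidine block.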

| Substance | solubility change mitosis (log2) [1] | solubility in G1/S (log2) [2] | thermal stability score [3, 5] | thermal stability score ([3]; cell cycle stage: mitosis) | melting temperature ([4]; cell cycle stage: G1/S) | melting temperature ([4]; cell cycle stage: mitosis) |
| --- | --- | --- | --- | --- | --- | --- |
| MLRRGSQALRRFSTGRVYFKNKLKLALIGQSLFGQEVYSHLRKEGHRVVGVFTVPDKDGKADPLALAAEKDGTPVFKLPKWRVKGKTIKEVAEAYRSVGAELNVLPFCTQFIPMDIIDSPKHGSIIYHPSILPRHRGASAINWTLIMGDKKAGFSVFWADDGLDTGPILLQRSCDVEPNDTVDALYNRFLFPEGIKAMVEAVQLIADGKAPRIPQPEEGATYEGIQKKENAEISWDQSAEVLHNWIRGHDKVPGAWTEINGQMVTFYGSTLLNSSVPPGEPLEIKGAKKPGLVTKNGLVLFGNDGKALTVRNLQFEDGKMIPASQYFSTGETSVVELTAEEVKVAETIKVIWAGILSNVPIIEDSTDFFKSGASSMDVARLVEEIRQKCGGLQLQNEDVYMATKFEGFIQKVVRKLRGEDQEVELVVDYISKEVNEIMVKMPYQCFINGQFTDADDGKTYDTINPTDGSTICKVSYASLADVDKAVAAAKDAFENGEWGRMNARERGRLMYRLADLLEENQEELATIEALDSGAVYTLALKTHIGMSVQTFRYFAGWCDKIQGSTIPINQARPNRNLTFTKKEPLGVCAIIIPWNYPLMMLAWKSAACLAAGNTLVLKPAQVTPLTALKFAELSVKAGFPKGVINIIPGSGGIAGQRLSEHPDIRKLGFTGSTPIGKQIMKSCAVSNLKKVSLELGGKSPLIIFNDCELDKAVRMGMGAVFFNKGENCIAAGRLFVEESIHDEFVTRVVEEIKKMKIGDPLDRSTDHGPQNHKAHLEKLLQYCETGVKEGATLVYGGRQVQRPGFFMEPTVFTDVEDYMYLAKEESFGPIMVISKFQNGDIDGVLQRANSTEYGLASGVFTRDINKAMYVSEKLEAGTVFINTYNKTDVAAPFGGVKQSGFGKDLGEEALNEYLKTKTVTLEY [ALDH1L2] | -0.105 | 0.0306 | -0.0085 | -0.149 | 51.6 °C | 51.2 °C |
| MATANGAVENGQPDRKPPALPRPIRNLEVKFTKIFINNEWHESKSGKKFATCNPSTREQICEVEEGDKPDVDKAVEAAQVAFQRGSPWRRLDALSRGRLLHQLADLVERDRATLAALETMDTGKPFLHAFFIDLEGCIRTLRYFAGWADKIQGKTIPTDDNVVCFTRHEPIGVCGAITPWNFPLLMLVWKLAPALCCGNTMVLKPAEQTPLTALYLGSLIKEAGFPPGVVNIVPGFGPTVGAAISSHPQINKIAFTGSTEVGKLVKEAASRSNLKRVTLELGGKNPCIVCADADLDLAVECAHQGVFFNQGQCCTAASRVFVEEQVYSEFVRRSVEYAKKRPVGDPFDVKTEQGPQIDQKQFDKILELIESGKKEGAKLECGGSAMEDKGLFIKPTVFSEVTDNMRIAKEEIFGPVQPILKFKSIEEVIKRANSTDYGLTAAVFTKNLDKALKLASALESGTVWINCYNALYAQAPFGGFKMSGNGRELGEYALAEYTEVKTVTIKLGDKNP [ALDH1A3] | -0.0783 | 0.122 | -0.893 | -0.266 | 55.4 °C | 57.5 °C |
| MEDPQSKEPAGEAVALALLESPRPEGGEEPPRPSPEETQQCKFDGQETKGSKFITSSASDFSDPVYKEIAITNGCINRMSKEELRAKLSEFKLETRGVKDVLKKRLKNYYKKQKLMLKESNFADSYYDYICIIDFEATCEEGNPPEFVHEIIEFPVVLLNTHTLEIEDTFQQYVRPEINTQLSDFCISLTGITQDQVDRADTFPQVLKKVIDWMKLKELGTKYKYSLLTDGSWDMSKFLNIQCQLSRLKYPPFAKKWINIRKSYGNFYKVPRSQTKLTIMLEKLGMDYDGRPHCGLDDSKNIARIAVRMLQDGCELRINEKMHAGQLMSVSSSLPIEGTPPPQMPHFRK [ERI1] | -0.00712 | -0.0987 | -0.616 | 0.0498 | 51 °C | 49.9 °C |
| MFRGLSSWLGLQQPVAGGGQPNGDAPPEQPSETVAESAEEELQQAGDQELLHQAKDFGNYLFNFASAATKKITESVAETAQTIKKSVEEGKIDGIIDKTIIGDFQKEQKKFVEEQHTKKSEAAVPPWVDTNDEETIQQQILALSADKRNFLRDPPAGVQFNFDFDQMYPVALVMLQEDELLSKMRFALVPKLVKEEVFWRNYFYRVSLIKQSAQLTALAAQQQAAGKEEKSNGREQDLPLAEAVRPKTPPVVIKSQLKTQEDEEEISTSPGVSEFVSDAFDACNLNQEDLRKEMEQLVLDKKQEETAVLEEDSADWEKELQQELQEYEVVTESEKRDENWDKEIEKMLQEEN [SYAP1] | 0.264 | 0.391 | -0.579 | -1.49 | 53.2 °C | 53.5 °C |
| ILF2 | 0.0511 | -0.141 | -1.61 | -1.98 | 54.6 °C | 53.3 °C |
